The RNAGym collection of RNA variant scans (doi:10.1073/pnas.2313332121)

B1: TPR t1 (parent)
chain: GACCAAUCUGCCCUCAGAGCUCGAGAACAUCUUCGGAUGCAGAGGAGGCAGGCUUCGGUGGCGCGAUAGCGCCAACGUCCUCAACCUCCAAUGCAUCCCACCACAUGAUGAUGCCUGAAGAGCCUUGGUUUUUUG

Variants of: B1
Experiment: polymerase ribozyme fitness, log enrichment relative to wild type (log ratio); higher = more active; in vitro selection for triplet polymerase activity
Procedure, shortened: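 Mutant libraries for each subunit of a heterodimeric triplet polymerase ribozyme were made by PCR and then transcribed. Each library underwent one round of in vitro selection in triplicate: annealing with a biotinylated primer, the partner subunit and triplets, frozen incubation at −7 °C, gel excision of extended constructs, streptavidin-bead capture and RT-PCR. Input and output libraries were Illumina-sequenced, and only genotypes with ≥10 input reads and ≥1 read per output were kept. Fitness is the logarithm, base 2, of genotype enrichment over wild-type enrichment, computed from inverse-variance-weighted replicate averages.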

In order of falling “polymerase ribozyme fitness (log ratio)” value:
1. GACCAAUCUGCCCUCAGAGCGCGAGAACAUCUUCGGAUGCAGAGGAGGCAGGCUUCGGUGGCGCGAUAGCUCCAACGUCCUCAACCUCCAAUGCAUCCCACCACAUGAUUAAGCCUGAAGAGCCUUGGUUUUUUG [U21G G71U G110U U112A]  -1.83
2. GACCAAUCUGCCCUCAGAGCUAGAGAACAUCUUCGGAUGCAGAGGAGGCAGGCUUCGGUGGCGCGAUAGCGACAACGUCCUCAACCUCCAAUGCAUCCCACCACAAGAUGAUGCCUGGAGAGCCUUGGUUUUUUG [C22A C72A U106A A118G]  -3.71
3. GACCAAUCUGCCCUCAGAGCUAGAGAACAUCUUCGGAUGCAGAGGAGGUAGGCUUCGGUGGCGCGAUAGCGCGAACGUCCUCAACCUCCAAUGCAUCCCACCACAUGAUGAUGCCUGAAGAGCCUUGGUUUUUUG [C22A C49U C73G]  -4.03
4. GACCAAUCUGCCCUCAGAGCUAGAGUACAUCUUCGGAUGCAGAGGAGGCAGGCUUCGGUGGCGCGAUAGCGCCAACGUCCUCAACCUCCAAUGCAUCCCACCACAUGAUGAUGCCUGAAGAGCCUUGGUUUUUUG [C22A A26U]  -4.2
5. GACCAAUCUGCCCUCAGAGCUAGAGAACAUCUUCGGAUGCAGUGGAGGCAGGCUUCGGUGGCGCGAUAGCGCCAACGUCCUCAACCUCCAAUGCAUCCCACCACACGAUGAUGUCUGAAGAGCCUUGGUUUUUUG [C22A A43U U106C C114U]  -4.24
6. GACCAAUCUGCCCUCAGAGCUAGAGAACAUCUUCGGAUGCAGAGGAGGCAGGCUCCGGUGGCGCGAUAGCGCCAACGUCCUCAACCUCCAAUGCAUCCCACCACAUGAUGAUGCCUGAAGAGCCUUGGUUUUUUG [C22A U55C]  -4.37
7. GACCAAUCUGCCCUCAGAGCUAGAGAACAUCUUCGGAUGCAGAGGAGGUAGGCUUCGGUGGCGCGAUAGCGCGAACGUCCUCAACCUCCAAUGCAUCCCACCACAUGAUGAUGCCUGAAGAGCGUUGGUUUUUUG [C22A C49U C73G C124G]  -4.49
8. GACCAAUCUGCCCUCAGAGCUAGAGAACAUCUUCGGAUGCAGAUGAGGCAGGCUUCGGUGGCGCGAUAGCGCCAACGUCCUCAACCUCCAAUACAUCCCACCACAUGAUGAUGCCUGAAGAGCUUUGGUUUUUUG [C22A G44U G93A C124U]  -4.53
9. GACCAAUCUGCCCUCAGAGCUAGAGAACAUCUUCGGAUGCAGAGGAGGCAGGCUUCGGUGACGCGAUAGCGCCAACGUCCUCAACCUCCAAUGCAUCCCACCACAUGAUGAUGCCUGAAGAGCCUUGGUUUUUUG [C22A G61A]  -4.54
10. GACCAAUCUGCCCUCAGAGCUAGAGAACAUCUUCGUAUGCAGAGGAGGCAGGCUCCGGUGGCGCGAUAGCGCCAACGUCCUCAACCUCCAAUGCAUCCCACCACAUGAUGAUGCCUGAAAAGCCUUGGUUUUUUG [C22A G36U U55C G120A]  -4.54
11. GACCAAUCUGCCCUCAGAGCUAGAGAACAUCUUCGGAUGCAGAGGAGGCAGGCUUCGGUGGCGCGAUAGCGCCAACGUCCUCAACCUUCAAUGCAUCCCACCACAUGAUGAUGCCUGAAGAGCCUUGGUUUUUUG [C22A C88U]  -4.66
12. GACCAAUCUGCCCUCAGAGCUAGAGAACAUCUUCGGAUGCAGAGGAGGCAGGCUGCGGUGGCGCGAUAGCGCCAACGUCCUCAACCUCCAAUGCAUCCCACCACAUGAUGAUGCCUGAAGAGCCUUGGUUUUUUG [C22A U55G]  -4.85
13. GACCAAUCUGCCCUCAGAGCUAGAGAACAUCUUCGGAUGAAGAGGAGGCAGGCUUCGGUGGCGCGAUAGCGCAAACGUCCUCAACCUCCAAUGCAUCCCACCACAUGAUGAUGCCUGAAGAGUCUUGGUUUUUUG [C22A C40A C73A C123U]  -4.93
14. GACCAAUCUGCCCUCAGAGCUAGAGAACAUCUUCGGAUACAGAGGAGGCAGGCUUCGGUGGCGCGAUAGCGCCAACGUCCUCAACCUCCAAUGCAUCCCACCACAUGAUGAUGCCUGAAGAGCCUUGGUUUUUUG [C22A G39A]  -5.08
15. GACCAAUCUGCCCUCAGAGCUAGAGAACAUCUUCGGUUGCAGAGGAGGCAGGUUUCGGUGGCGCGAUAGCGCGAACGUCCUCAACCUCCAAUGCAUCCCACCACAUGAUGAUGCCUGAAGAGCCUUGGUUUUUUG [C22A A37U C53U C73G]  -5.35
16. GACCAAUCUGCCCUCAGAGCUAGAGAACAUCUUCGGAUGCAGAGGAGGCAGGCUUCGGAGGCGCGAUAGCGCCAACGUCCUCAACCUCCAAUGCAUCCCACCACAUGAUGAUGCCUGAAGAGCCUUGGUUUUUUG [C22A U59A]  -5.52
17. GACCAAUCUGCCCUCAGAGCGCGAGAACAUCUUCGGAUGCAGAGGAGGCAGGCCUCGAUGGCGCGAUAGCGCCAACGUCCACAACCUCCAGUGCUUCCCACCACAUGAUGAUACCUGAAGAGCCGUGGUUUUUUG [U21G U54C G58A U81A A91G A95U G113A U125G]  -5.59
18. GACCAAUCUGCCCUCAGAGCUAGAGAACAUCUUCGGUUGCAGAGGAGGCAGGCUUCGGUGGCGCGAUAGCGCCAACGUCCUCAACCUCCAAUGCAUCCCACCACAUGAUGAUGCCUGAAGAGCCUUGGUUUUUUG [C22A A37U]  -5.66
19. GACCAAUCUGCCCUCAGAGCUAGAGAACAUCUUCGGAUGCAGAGGAGGCAGGCUUCGGUGGCGCGAUAGUGCCAACCUCCUCAACCUCCAAUGCAUCCCACCACAUGAUGAUGCCUGAAGAGCCUUGGUUUUUUG [C22A C70U G77C]  -6.73
20. GACCAAUCUGCCCUCAGAGCUAGAGAACAUCUUCGGAUGCAGAGGAGGCAAGCUUCGGUGGCGCGAUAGCCCCAACGUCCUCAACCUCCAAUGCAUCCCACCACAUGAUGCUGCCUGAAGAGCCUUGGUUUUUUG [C22A G51A G71C A111C]  -6.96
21. GACCAAUCUGCCCUCAGAGCUAGAGAACAUCUUCGGAUGCAGAGGAGUUAGGCUUCGGUGGGGCGAUAACGCCAACGUCCUCAACCUCCAAUGCAUCCCACCACAUGGUGCUGCCUGAAGAGCCUUGGUUUUUUG [C22A G48U C49U C62G G69A A108G A111C]  -6.98
